Here are results for six sequences from the supplement of paper PMC11316812.

For one data set, the system named is hTERT-HMEC. The data set is described as follows: percentage of EdU-negative (G0-arrested) nuclei per well, 72 h; higher = more G0 arrest. As to conditions: reference: sequence is the full UniProt precursor, the tested protein was the secreted form or ectodomain.
A further data set relates to MCF7. The description is as above. As to conditions: reference: sequence is the full UniProt precursor, the tested protein was the secreted form or ectodomain.
[1] abbreviates: protein concentration 0.0122857 µM.
[2] abbreviates: protein concentration 0.122857 µM.
Setting [3] is: protein concentration 0.0225714 µM.
Where [4] appears, read: protein concentration 0.225714 µM.
The mark [5] stands for this setting: protein concentration 0.0225 µM.
Setting [6] is: protein concentration 0.0284475 µM.
Setting [7] is: protein concentration 0.284475 µM.

± gives the standard deviation of the averaged measurements.
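Note: secreted proteins added to cultured cells, EdU pulse at the end, nuclei found by Hoechst imaging, EdU status from nuclear versus surrounding ring intensity ratio, PBS as neutral control.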

On to “MPRGFTWLRYLGIFLGVALGNEPLEMWPLTQNEECTVTGFLRDKLQYRSRLQYMKHYFPINYKISVPYEGVFRIANVTRLQRAQVSERELRYLWVLVSLSATESVQDVLLEGHPSWKYLQEVETLLLNVQQGLTDVEVSPKVESVLSLLNAPGPNLKLVRPKALLDNCFRVMELLYCSCCKQSSVLNWQDCEVPSPQSCSPEPSLQYAATQLYPPPPWSPSSPPHSTGSVRPVRAQGEGLLP [Q6ZMJ4]”, for which the “percentage of EdU-negative” value worked out at 4.75 ± 0.29% in the data set on hTERT-HMEC (setting [1]), 18.4 ± 1.3% in the data set on hTERT-HMEC (setting [2]), 25.6 ± 1.6% in the data set on MCF7 (setting [1]) and 27.7 ± 1.3% in the data set with MCF7 (setting [2]).
With “MPRLSLLLPLLLLLLLPLLPPLSPSLGIRDVGGRRPKCGPCRPEGCPAPAPCPAPGISALDECGCCARCLGAEGASCGGRAGGRCGPGLVCASQAAGAAPEGTGLCVCAQRGTVCGSDGRSYPSVCALRLRARHTPRAHPGHLHKARDGPCEFAPVVVVPPRSVHNVTGAQVGLSCEVRAVPTPVITWRKVTKSPEGTQALEELPGDHVNIAVQVRGGPSDHEATAWILINPLRKEDEGVYQCHAANMVGEAESHSTVTVLDLSKYRSFHFPAPDDRM [Q8WX77]”, the “percentage of EdU-negative” value in the data set on hTERT-HMEC (setting [3]) turned out to be 4.78 ± 0.086%; in the data set with hTERT-HMEC (setting [4]), 4.6 ± 1.4%; in the data set on MCF7 (setting [3]) it was 27.4 ± 0.89%; in the data set with MCF7 (setting [4]), 29.2 ± 0.86%.
For “MPRPAPARRLPGLLLLLWPLLLLPSAAPDPVARPGFRRLETRGPGGSPGRRPSPAAPDGAPASGTSEPGRARGAGVCKSRPLDLVFIIDSSRSVRPLEFTKVKTFVSRIIDTLDIGPADTRVAVVNYASTVKIEFQLQAYTDKQSLKQAVGRITPLSTGTMSGLAIQTAMDEAFTVEAGAREPSSNIPKVAIIVTDGRPQDQVNEVAARAQASGIELYAVGVDRADMASLKMMASEPLEEHVFYVETYGVIEKLSSRFQETFCALDPCVLGTHQCQHVCISDGEGKHHCECSQGYTLNADKKTCSALDRCALNTHGCEHICVNDRSGSYHCECYEGYTLNEDRKTCSAQDKCALGTHGCQHICVNDRTGSHHCECYEGYTLNADKKTCSVRDKCALGSHGCQHICVSDGAASYHCDCYPGYTLNEDKKTCSATEEARRLVSTEDACGCEATLAFQDKVSSYLQRLNTKLDDILEKLKINEYGQIHR”, the “percentage of EdU-negative” value in the data set with hTERT-HMEC (setting [5]) worked out at 4.9 ± 0.095%; with hTERT-HMEC (protein concentration 0.225 µM), 5.61 ± 0.67%; with MCF7 (setting [5]), 22.2 ± 2.4%; in the data set on MCF7 (protein concentration 0.225 µM), 26.2 ± 2%.
In the case of “MPRQLSAAAALFASLAVILHDGSQMRAKAFPETRDYSQPTAAATVQDIKKPVQQPAKQAPHQTLAARFMDGHITFQTAATVKIPTTTPATTKNTATTSPITYTLVTTQATPNNSHTAPPVTEVTVGPSLAPYSLPPTITPPAHTTGTSSSTVSHTTGNTTQPSNQTTLPATLSIALHKSTTGQKPVQPTHAPGTTAAAHNTTRTAAPASTVPGPTLAPQPSSVKTGIYQVLNGSRLCIKAEMGIQLIVQDKESVFSPRRYFNIDPNATQASGNCGTRKSNLLLNFQGGFVNLTFTKDEESYYISEVGAYLTVSDPETIYQGIKHAVVMFQTAVGHSFKCVSEQSLQLSAHLQVKTTDVQLQAFDFEDDHFGNVDECSSDYTIVLPVIGAIVVGLCLMGMGVYKIRLRCQSSGYQRI [Q9UQV4]”, the “percentage of EdU-negative” value was determined as 5.03 ± 0.35% in the data set on hTERT-HMEC (setting [6]), 5.04 ± 0.52% with hTERT-HMEC (setting [7]), 25.5 ± 0.37% with MCF7 (setting [6]) and 26.2 ± 0.31% in the data set with MCF7 (setting [7]).
In the case of “MPRRGYSKPGSWGSFWAMLTLVGLVTHAAQRADVGGEAAGTSINHSQAVLQRLQELLRQGNASDVVLRVQAAGTDEVRVFHAHRLLLGLHSELFLELLSNQSEAVLQEPQDCAAVFDKFIRYLYCGELTVLLTQAIPLHRLATKYGVSSLQRGVADYMRAHLAGGAGPAVGWYHYAVGTGDEALRESCLQFLAWNLSAVAASTEWGAVSPELLWQLLQRSDLVLQDELELFHALEAWLGRARPPPAVAERALRAIRYPMIPPAQLFQLQARSAALARHGPAVADLLLQAYQFHAASPLHYAKFFDVNGSAFLPRNYLAPAWGAPWVINNPARDDRSTSFQTQLGPSGHDAGRRVTWNVLFSPRWLPVSLRPVYADAAGTALPAARPEDGRPRLVVTPASSGGDAAGVSFQKTVLVGARQQGRLLVRHAYSFHQSSEEAGDFLAHADLQRRNSEYLVENALHLHLIVKPVYHTLIRTPK [A6NE02]”, the “percentage of EdU-negative” value in the data set with hTERT-HMEC (protein concentration 0.006 µM) was determined as 5.11 ± 0.82%; with hTERT-HMEC (protein concentration 0.06 µM) it was 10 ± 0.96%; in the data set with MCF7 (protein concentration 0.006 µM), 26.7 ± 0.63%; with MCF7 (protein concentration 0.06 µM), 26.1 ± 1.3%.
Turning to “MPRRSLHAAAVLLLVILKEQPSSPAPVNGSKWTYFGPDGENSWSKKYPSCGGLLQSPIDLHSDILQYDASLTPLEFQGYNLSANKQFLLTNNGHSVKLNLPSDMHIQGLQSRYSATQLHLHWGNPNDPHGSEHTVSGQHFAAELHIVHYNSDLYPDASTASNKSEGLAVLAVLIEMGSFNPSYDKIFSHLQHVKYKGQEAFVPGFNIEELLPERTAEYYRYRGSLTTPPCNPTVLWTVFRNPVQISQEQLLALETALYCTHMDDPSPREMINNFRQVQKFDERLVYTSFSQVQVCTAAGLSLGIILSLALAGILGICIVVVVSIWLFRRKSIKKGDNKGVIYKPATKMETEAHA”, the “percentage of EdU-negative” value was found to be 5.44 ± 1.7% in the data set with hTERT-HMEC (setting [5]), 5.5 ± 1.2% with hTERT-HMEC (protein concentration 0.225 µM), 26 ± 0.83% in the data set with MCF7 (setting [5]) and 25.7 ± 0.64% in the data set on MCF7 (protein concentration 0.225 µM).
